From patent publication US20210070804A1 (published 2021)

Tests used:
[1] = molecular target: clone nr 1.4 (SEQ ID NO: 3), monoclonal phage; assay: cross reactivity phage ELISA on coated toxin
[2] = molecular target: clone nr 1.8 (SEQ ID NO: 4), monoclonal phage; assay: cross reactivity phage ELISA on coated toxin
[3] = molecular target: clone nr 4.10 (SEQ ID NO: 6), monoclonal phage; assay: cross reactivity phage ELISA on coated toxin
[4] = molecular target: clone nr 1.2 (SEQ ID NO: 2), monoclonal phage; assay: cross reactivity phage ELISA on coated toxin
[5] = molecular target: clone nr 1.9 (SEQ ID NO: 5), monoclonal phage; assay: cross reactivity phage ELISA on coated toxin
[6] = molecular target: clone nr 1.1 (SEQ ID NO: 1), monoclonal phage; assay: cross reactivity phage ELISA on coated toxin
TAMRA-labeled JB006 = assay: fluorescence polarization with TAMRA-labeled JB006
[7] = molecular target: clone nr 1.8 (SEQ ID NO: 4), monoclonal phage; assay: phage ELISA, dilution series 1/10 to 1/1000
[8] = molecular target: clone nr 4.10 (SEQ ID NO: 6), monoclonal phage; assay: phage ELISA, dilution series 1/10 to 1/1000
[9] = molecular target: clone nr 1.9 (SEQ ID NO: 5), monoclonal phage; assay: phage ELISA, dilution series 1/10 to 1/1000
[10] = molecular target: clone nr 1.1 (SEQ ID NO: 1), monoclonal phage; assay: monoclonal phage ELISA on coated myotoxin II

Measured: binding result

B1: α-cobra toxin (a-cbtx) from Naja kaouthia (other)
chain: IRCFITPDITSKDCPNGHVCYTKTWCDAFCSIRGKRVDLGCAATCPTVKTGVDIQCCSTDNCNPFPTRKRP
binds: [1] | [2] | [3] | [4] | [5] | [6]

B2: Myotoxin II from venom of Bothrops asper (other)
chain: SLFELGKMILQETGKNPAKSYGAYGCNCGVLGRGKPKDATDRCCYVHKCCYKKLTGCNPKKDRYSYSWKDKTIVCGENNSCLKELCECDKAVAICLRENLNTYNKKYRYYLKPLCKKADAC
not listed: [2] | [3] | [5] | [6]
binds: all other assays above
